Results: article PMC9482650, “Quantitative fragmentomics allow affinity mapping of interactomes” (Nature Communications, 2022)
Changes are numbered by the printed parent chain.

T1: LIN7C, Q9NUP9
T1 sequence (Q9NUP9 88-185, limits assumed, looked up): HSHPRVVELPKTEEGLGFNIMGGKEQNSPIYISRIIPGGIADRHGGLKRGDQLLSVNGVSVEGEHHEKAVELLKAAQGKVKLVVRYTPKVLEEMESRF

T2: RAPGEF6, Q8TEU7
T2 sequence (Q8TEU7 525-625, limits assumed, looked up): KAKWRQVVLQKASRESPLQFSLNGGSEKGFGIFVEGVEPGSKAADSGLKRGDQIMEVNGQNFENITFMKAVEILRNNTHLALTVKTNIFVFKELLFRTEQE

T3: SNTB1, Q13884
T3 sequence (Q13884 107-205, limits assumed, looked up): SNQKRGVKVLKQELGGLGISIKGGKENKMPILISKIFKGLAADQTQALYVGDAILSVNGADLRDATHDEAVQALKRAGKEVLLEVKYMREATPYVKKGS

T4: TIAM2, Q8IVF5
T4 sequence (Q8IVF5 885-986, limits assumed, looked up): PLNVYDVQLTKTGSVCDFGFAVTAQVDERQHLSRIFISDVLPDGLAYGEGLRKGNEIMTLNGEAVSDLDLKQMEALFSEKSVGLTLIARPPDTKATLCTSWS

T5: RHPN1, Q8TCX5
T5 sequence (Q8TCX5 508-602, limits assumed, looked up): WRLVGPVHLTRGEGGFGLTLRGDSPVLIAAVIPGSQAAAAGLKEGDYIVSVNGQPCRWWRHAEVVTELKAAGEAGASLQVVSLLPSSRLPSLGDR

T6: DLG3_1, Q92796
T6 sequence (Q92796 125-227, limits assumed, looked up): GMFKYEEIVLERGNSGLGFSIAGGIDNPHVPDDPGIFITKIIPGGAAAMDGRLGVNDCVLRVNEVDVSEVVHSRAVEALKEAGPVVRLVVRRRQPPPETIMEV

T7: LIN7B, Q9HAP6
T7 sequence (Q9HAP6 88-185, limits assumed, looked up): T1 sequence (Q9NUP9 88-185, limits assumed, looked up) with S2A, E13D, I35V, I40V, H65Q, K79S, K89R, S96A

T8: MPDZ_5, O75970
T8 sequence (O75970 695-796, limits assumed, looked up): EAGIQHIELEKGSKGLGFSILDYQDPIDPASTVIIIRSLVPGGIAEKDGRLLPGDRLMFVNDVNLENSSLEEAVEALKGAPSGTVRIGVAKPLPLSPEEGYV

T9: DFNB31_2, Q9P202
T9 sequence (Q9P202 274-371, limits assumed, looked up): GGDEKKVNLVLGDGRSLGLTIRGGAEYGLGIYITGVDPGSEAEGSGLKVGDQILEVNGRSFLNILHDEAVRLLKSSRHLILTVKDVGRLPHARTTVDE

T10: MPP7, Q5T2T1
T10 sequence (Q5T2T1 134-230, limits assumed, looked up): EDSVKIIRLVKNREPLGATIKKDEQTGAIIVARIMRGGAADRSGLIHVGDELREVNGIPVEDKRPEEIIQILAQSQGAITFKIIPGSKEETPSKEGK

T11: NHERF3_3, Q5T2W1
T11 sequence (Q5T2W1 238-333, limits assumed, looked up): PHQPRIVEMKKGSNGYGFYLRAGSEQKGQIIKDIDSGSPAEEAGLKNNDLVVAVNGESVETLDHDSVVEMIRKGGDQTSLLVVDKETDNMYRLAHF

T12: PTPN13_1, Q12923
T12 sequence (Q12923 1088-1188, limits assumed, looked up): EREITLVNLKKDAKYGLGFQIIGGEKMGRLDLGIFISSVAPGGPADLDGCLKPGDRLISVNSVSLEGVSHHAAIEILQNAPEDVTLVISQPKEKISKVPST

T13: PDZRN3_1, Q9UPQ7
T13 sequence (Q9UPQ7 244-349, limits assumed, looked up): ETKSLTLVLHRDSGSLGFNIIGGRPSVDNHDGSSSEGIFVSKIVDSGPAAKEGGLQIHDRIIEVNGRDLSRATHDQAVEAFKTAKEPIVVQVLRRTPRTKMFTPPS

B1: AXIN1_int, O15169 (peptide)
chain: TLSLTDSSVDGIPPYR

target: T1, LIN7C, Q9NUP9; assay: holdup assay; set-up: key: below the threshold = too weak to quantify, mostly under pKd 3.1 to 4; details: plain residues with an end cap or a label only (N-terminal biotin on a linker: gsgsgs; C-terminal amide)

Row | pKd | Binder
1 | 3.97 | B1

target: MAGI3_2, Q5TCQ9; assay: holdup assay; set-up: key: below the threshold = too weak to quantify, mostly under pKd 3.1 to 4; details: plain residues with an end cap or a label only (N-terminal biotin on a linker: gsgsgs; C-terminal amide)
Sequence (Q5TCQ9 398-503): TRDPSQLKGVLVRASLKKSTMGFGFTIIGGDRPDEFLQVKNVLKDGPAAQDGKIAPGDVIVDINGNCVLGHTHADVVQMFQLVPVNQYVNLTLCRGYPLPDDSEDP

Row | pKd | Binder
2 | below the threshold | B1

target: T2, RAPGEF6, Q8TEU7; assay: holdup assay; set-up: key: below the threshold = too weak to quantify, mostly under pKd 3.1 to 4; details: plain residues with an end cap or a label only (N-terminal biotin on a linker: gsgsgs; C-terminal amide)

Row | pKd | Binder
3 | below the threshold | B1

target: FRMPD2_1, Q68DX3; assay: holdup assay; set-up: key: below the threshold = too weak to quantify, mostly under pKd 3.1 to 4; details: plain residues with an end cap or a label only (N-terminal biotin on a linker: gsgsgs; C-terminal amide)
Sequence (Q68DX3 770-861): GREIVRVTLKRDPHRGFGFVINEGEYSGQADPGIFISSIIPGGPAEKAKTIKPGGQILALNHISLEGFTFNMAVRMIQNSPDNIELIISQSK

Row | pKd | Binder
4 | below the threshold | B1

target: Inadl_6, Q8NI35; assay: holdup assay; set-up: key: below the threshold = too weak to quantify, mostly under pKd 3.1 to 4; details: plain residues with an end cap or a label only (N-terminal biotin on a linker: gsgsgs; C-terminal amide)
Sequence (Q8NI35 1058-1167): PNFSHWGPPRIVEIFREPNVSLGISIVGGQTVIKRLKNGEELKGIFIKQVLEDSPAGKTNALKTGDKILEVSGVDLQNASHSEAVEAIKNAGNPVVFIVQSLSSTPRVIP

Row | pKd | Binder
5 | below the threshold | B1

target: SCRIB_3, Q14160; assay: holdup assay; set-up: key: below the threshold = too weak to quantify, mostly under pKd 3.1 to 4; details: plain residues with an end cap or a label only (N-terminal biotin on a linker: gsgsgs; C-terminal amide)
Sequence (Q14160 999-1103): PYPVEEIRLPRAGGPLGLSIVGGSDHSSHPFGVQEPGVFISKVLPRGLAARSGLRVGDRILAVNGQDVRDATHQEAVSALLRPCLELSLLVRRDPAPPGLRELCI

Row | pKd | Binder
6 | below the threshold | B1

target: T3, SNTB1, Q13884; assay: holdup assay; set-up: key: below the threshold = too weak to quantify, mostly under pKd 3.1 to 4; details: plain residues with an end cap or a label only (N-terminal biotin on a linker: gsgsgs; C-terminal amide)

Row | pKd | Binder
7 | below the threshold | B1

target: T4, TIAM2, Q8IVF5; assay: holdup assay; set-up: key: below the threshold = too weak to quantify, mostly under pKd 3.1 to 4; details: plain residues with an end cap or a label only (N-terminal biotin on a linker: gsgsgs; C-terminal amide)

Row | pKd | Binder
8 | 3.9 | B1

target: T5, RHPN1, Q8TCX5; assay: holdup assay; set-up: key: below the threshold = too weak to quantify, mostly under pKd 3.1 to 4; details: plain residues with an end cap or a label only (N-terminal biotin on a linker: gsgsgs; C-terminal amide)

Row | pKd | Binder
9 | below the threshold | B1

target: NHERF4_1, Q86UT5-2; assay: holdup assay; set-up: key: below the threshold = too weak to quantify, mostly under pKd 3.1 to 4; details: plain residues with an end cap or a label only (N-terminal biotin on a linker: gsgsgs; C-terminal amide)
Sequence (Q86UT5 other isoform, or with tags, fused parts or gaps): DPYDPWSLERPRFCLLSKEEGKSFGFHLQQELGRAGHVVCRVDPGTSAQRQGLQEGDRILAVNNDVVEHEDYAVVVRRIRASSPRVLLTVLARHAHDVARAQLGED

Row | pKd | Binder
10 | below the threshold | B1

target: T6, DLG3_1, Q92796; assay: holdup assay; set-up: key: below the threshold = too weak to quantify, mostly under pKd 3.1 to 4; details: plain residues with an end cap or a label only (N-terminal biotin on a linker: gsgsgs; C-terminal amide)

Row | pKd | Binder
11 | below the threshold | B1

target: DLG4_1, P78352; assay: holdup assay; set-up: key: below the threshold = too weak to quantify, mostly under pKd 3.1 to 4; details: plain residues with an end cap or a label only (N-terminal biotin on a linker: gsgsgs; C-terminal amide)
Sequence (P78352 62-152): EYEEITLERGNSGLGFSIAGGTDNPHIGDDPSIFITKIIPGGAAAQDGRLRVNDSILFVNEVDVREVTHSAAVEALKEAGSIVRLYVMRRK

Row | pKd | Binder
12 | below the threshold | B1

target: MAGI1_1, Q96QZ7; assay: holdup assay; set-up: key: below the threshold = too weak to quantify, mostly under pKd 3.1 to 4; details: plain residues with an end cap or a label only (N-terminal biotin on a linker: gsgsgs; C-terminal amide)
Sequence (Q96QZ7 1-106): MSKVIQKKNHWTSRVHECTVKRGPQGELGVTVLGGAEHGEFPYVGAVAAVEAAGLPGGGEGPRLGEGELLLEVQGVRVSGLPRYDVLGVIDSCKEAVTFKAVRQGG

Row | pKd | Binder
13 | below the threshold | B1

target: T7, LIN7B, Q9HAP6; assay: holdup assay; set-up: key: below the threshold = too weak to quantify, mostly under pKd 3.1 to 4; details: plain residues with an end cap or a label only (N-terminal biotin on a linker: gsgsgs; C-terminal amide)

Row | pKd | Binder
14 | 3.72 | B1

target: T8, MPDZ_5, O75970; assay: holdup assay; set-up: key: below the threshold = too weak to quantify, mostly under pKd 3.1 to 4; details: plain residues with an end cap or a label only (N-terminal biotin on a linker: gsgsgs; C-terminal amide)

Row | pKd | Binder
15 | below the threshold | B1

target: T9, DFNB31_2, Q9P202; assay: holdup assay; set-up: key: below the threshold = too weak to quantify, mostly under pKd 3.1 to 4; details: plain residues with an end cap or a label only (N-terminal biotin on a linker: gsgsgs; C-terminal amide)

Row | pKd | Binder
16 | below the threshold | B1

target: LNX1_3, Q8TBB1; assay: holdup assay; set-up: key: below the threshold = too weak to quantify, mostly under pKd 3.1 to 4; details: plain residues with an end cap or a label only (N-terminal biotin on a linker: gsgsgs; C-terminal amide)
Sequence (Q8TBB1 500-596): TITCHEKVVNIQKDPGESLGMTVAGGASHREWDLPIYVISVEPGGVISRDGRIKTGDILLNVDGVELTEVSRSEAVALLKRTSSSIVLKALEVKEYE

Row | pKd | Binder
17 | below the threshold | B1

target: T10, MPP7, Q5T2T1; assay: holdup assay; set-up: key: below the threshold = too weak to quantify, mostly under pKd 3.1 to 4; details: plain residues with an end cap or a label only (N-terminal biotin on a linker: gsgsgs; C-terminal amide)

Row | pKd | Binder
18 | below the threshold | B1

target: GORASP1, Q9BQQ3; assay: holdup assay; set-up: key: below the threshold = too weak to quantify, mostly under pKd 3.1 to 4; details: plain residues with an end cap or a label only (N-terminal biotin on a linker: gsgsgs; C-terminal amide)
Sequence (Q9BQQ3 1-208): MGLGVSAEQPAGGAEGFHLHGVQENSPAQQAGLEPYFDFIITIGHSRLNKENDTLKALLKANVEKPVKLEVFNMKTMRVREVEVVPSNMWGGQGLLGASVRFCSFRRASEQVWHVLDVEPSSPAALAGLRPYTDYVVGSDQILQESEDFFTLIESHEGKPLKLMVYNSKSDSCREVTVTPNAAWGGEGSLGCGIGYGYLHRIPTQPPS

Row | pKd | Binder
19 | below the threshold | B1

target: MAGI2_2, Q86UL8; assay: holdup assay; set-up: key: below the threshold = too weak to quantify, mostly under pKd 3.1 to 4; details: plain residues with an end cap or a label only (N-terminal biotin on a linker: gsgsgs; C-terminal amide)
Sequence (Q86UL8 410-522): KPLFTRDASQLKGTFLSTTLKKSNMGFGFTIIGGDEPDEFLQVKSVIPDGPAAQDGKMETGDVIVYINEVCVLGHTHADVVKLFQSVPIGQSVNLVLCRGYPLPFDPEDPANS

Row | pKd | Binder
20 | below the threshold | B1

target: T11, NHERF3_3, Q5T2W1; assay: holdup assay; set-up: key: below the threshold = too weak to quantify, mostly under pKd 3.1 to 4; details: plain residues with an end cap or a label only (N-terminal biotin on a linker: gsgsgs; C-terminal amide)

Row | pKd | Binder
21 | below the threshold | B1

target: SNX27, Q96L92; assay: holdup assay; set-up: key: below the threshold = too weak to quantify, mostly under pKd 3.1 to 4; details: plain residues with an end cap or a label only (N-terminal biotin on a linker: gsgsgs; C-terminal amide)

Row | pKd | Binder
22 | below the threshold | B1

target: T12, PTPN13_1, Q12923; assay: holdup assay; set-up: key: below the threshold = too weak to quantify, mostly under pKd 3.1 to 4; details: plain residues with an end cap or a label only (N-terminal biotin on a linker: gsgsgs; C-terminal amide)

Row | pKd | Binder
23 | 3.5 | B1

target: T13, PDZRN3_1, Q9UPQ7; assay: holdup assay; set-up: key: below the threshold = too weak to quantify, mostly under pKd 3.1 to 4; details: plain residues with an end cap or a label only (N-terminal biotin on a linker: gsgsgs; C-terminal amide)

Row | pKd | Binder
24 | below the threshold | B1
